The text below walks through data of article PMC5829826.

Positions count from the first letter of the chain named.

What all share (test): EMSA
Holding throughout (conditions): 60 mM HEPES-KOH pH 7.5, 25 mM MgCl2, 5 mM EDTA, 300 mM KCl, 50 µg/ml BSA, 3 mM DTT, 24 ng labeled DNA, 20 min, room temperature
Background: In EMSA bound probe runs differently from free probe, usually more slowly.

For data set [1], the target named is T1, Cra WT (Escherichia coli EHEC TUV93-0) (UniProt P0ACP1).
T1 sequence: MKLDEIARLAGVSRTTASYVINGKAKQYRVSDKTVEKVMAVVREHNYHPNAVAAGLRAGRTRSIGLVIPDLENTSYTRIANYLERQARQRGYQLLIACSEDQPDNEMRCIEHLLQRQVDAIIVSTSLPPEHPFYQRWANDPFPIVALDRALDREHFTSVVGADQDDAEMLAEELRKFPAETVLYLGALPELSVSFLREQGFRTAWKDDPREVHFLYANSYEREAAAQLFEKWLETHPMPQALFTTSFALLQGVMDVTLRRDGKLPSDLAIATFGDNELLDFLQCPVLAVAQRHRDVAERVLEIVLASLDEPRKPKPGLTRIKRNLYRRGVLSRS

For data set [2], the target named is T2, Cra Y47E Y47E (Escherichia coli EHEC TUV93-0) (UniProt P0ACP1).
T2 sequence: T1 sequence with Y47E

Data set [3] addresses T3, Cra Y47F Y47F (Escherichia coli EHEC TUV93-0) (UniProt P0ACP1).
T3 sequence: T1 sequence with Y47F

For data set [4], the system named is LacI Y47F Y47F, ORF:a00089fe.
In data set [5] the test system is LacI Y47E Y47E, ORF:a00089fe.
In the next data set the test system is LacI WT, ORF:a00089fe.
Data set [6] has as its target T4, PurR Y45F Y45F (Escherichia coli (TUV93-0?)) (UniProt P0ACP7).
T4 sequence: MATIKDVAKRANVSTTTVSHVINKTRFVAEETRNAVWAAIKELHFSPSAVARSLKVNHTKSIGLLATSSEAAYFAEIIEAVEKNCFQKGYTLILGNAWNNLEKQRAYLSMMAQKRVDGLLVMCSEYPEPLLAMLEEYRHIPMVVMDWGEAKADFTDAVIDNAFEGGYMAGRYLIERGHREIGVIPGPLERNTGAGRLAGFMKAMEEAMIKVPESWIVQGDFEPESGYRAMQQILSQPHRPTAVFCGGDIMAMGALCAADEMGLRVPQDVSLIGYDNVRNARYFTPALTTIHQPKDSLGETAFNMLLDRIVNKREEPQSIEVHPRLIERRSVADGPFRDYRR

Data set [7] deals with T5, PurR WT (Escherichia coli (TUV93-0?)) (UniProt P0ACP7).
T5 sequence: T4 sequence with F45Y

For data set [8], the target named is T6, PurR Y45E Y45E (Escherichia coli (TUV93-0?)) (UniProt P0ACP7).
T6 sequence: T4 sequence with F45E

Data set [9] has as its system Cra WT (Escherichia coli EHEC TUV93-0).
The subject of data set [10] is Cra Y47F (Escherichia coli EHEC TUV93-0).

For the substance “CACCTCCTAACTACTTAAAATTGCTATCATTCGTTATTGTTATCTAGTTGTGCAAAACATGCTAATGTAGCCACCAAATCATACTACAATTTATTAACTGTTATCTATAATGGCGAAAAGCGATGCTGAAAGGTGTCAGCTTTGCAAAAATTTGATTTGGATCACGTAATCAGTACCCAGAAGTGAGTAATCTTGCTTACGCCACTTGGAAGTGACGCATTAGAGATAATAACTCTAATGTTTAAACTCTTTTAGTAAATCACAGTGAGTGTGTGCGC (double strand) [adhE regulatory fragment]”, the binding result in [1] is reported as “binds”; in [2], “no binding”; in [3], “binds”.

For “CATGTGCTGCGACTGCGTTCGCTTACCCCAATCACTTACTTATGTAAGCTCCTGGGGATTCACTCGCTTGCCGCCTTCCTGTAACTCGAATTAAGTAGAGTATAGTGAAACGGTTCAGCTTGGTTTTTATTCTGTTTTATTTGTTTATGCAATGAGATCTATCTTATAAAGAGAAACGCTTAACTAAATGGAAATGC (double strand) [LEE1 (ler) regulatory fragment]”, the Kd in data set [1] is 111 nM; in data set [3], 130 nM. The binding result in data set [1] is on record as “binds”; in [2], “no binding”; in data set [3], “binds”.

For the substance “CGACGGCCAGTGAATCTGTAATCATAGTCATAGCTGTATCCTGTGTGAAATTGTTATCCGCTCACAATTTCACACAACATACGAGCCGGACGCATAGAGTGTAAAGCGTGGGGTGCCTAATGAGTGAGCTGACTCACATTAATTGCGTTGCGCTCACTGCCCGCTTTCCAGTCGGGAAACTTGTCGTGCCAGCTGCATTAATGAATCG (double strand) [lacO1O3 fragment]”, the binding result was “binds” in data set [4]; “no binding” in data set [5]; “binds” with LacI WT, ORF:a00089fe.

For the substance “CGTAATCAATCCAGACCATATGTGTCCCACGATTTTACGCCCTGTCATCCTGTTCGGGGGCGCATTCTAACAGAAAAAGAAAACGTTTGCGTAGGGATTTCCTTCCCGCGCATCAATAAAAATGGCGCTGAAAAAATATTCAACGCCATCGACTTTTTATGCCTTTGCGGCATCGGACAATGCGTGTCGGATGCGGCGTAAACGTCTTATCCGACCTACGGTTCTACC (double strand) [purF-cvpA regulatory fragment]”, the binding result in [6] is given as “binds”; in data set [7], “binds”; in data set [8] it was “no binding”.

In the case of LEE1 (ler) regulatory fragment, in [9], the Kd was determined as 111 nM and the binding signal (% reduction of binding vs no metabolite) amounted to 33. Besides, in data set [10], the Kd amounted to 130 nM and the binding signal (% reduction of binding vs no metabolite) worked out at 33.

Regarding “TTTACGGCTTTCCTTGCGTGCTGAAACAGAAGTATTATGCTTTCTTGAAACGTTTCAGCGCGATCTTGTCTTTAACCCTAAGCCAGGTTGGCGCTTTTTTTCTCATAGAAGCTGAATCGTTTCAATTCAGCAAGAGAGGAGAACTATGTTCCAGTTATCCGTACAGGACATCCATCCGGGCGAAAAGGCCGGAGACAAAGAAGAGGCGATTCGCCAGGTCGCTGCGGCGCTGGTGCAGGCCGGTAATGTAGCAGAAGGCTACGTCAATGGCATGCTG (double strand) [fruB regulatory fragment]”, the values for the binding entry in data set [1], in data set [2] and in data set [3] were “binds”, “no binding” and “binds”, respectively.

The Kd is a measure of binding affinity in units of concentration.
